Molecular target: Rabbit anti-human MDL-1 polyclonal antibodies
Assay: cell-based or functional assay

B1: human MDL-1 extracellular domain protein expressed in baculovirus (receptor)
chain: PQIFNKSNDGFTTTRSYGTVSQIFGSSSPSPNGFITTRSYGTVCPKDWEFYQARCFFLSTSESSWNESRDFCKGKGSTLAIVNTPEKLKFLQDITDAEKYFIGLIYHREEKRWRWINNSVFNGNVTNQNQNFNCATIGLTKTFDAASCDISYRRICEKNAK
- IC50 for inhibition of α-hMDL-1 pAb-induced β-galactosidase reporter signaling in the CD3zH912Z1 line: 0.1 nM
